We go through nine molecules from patent US20250250328A1.

What all share (experiment): cell-based or functional assay
In experiment [1] the target is HIV-1 envelope 3326_V4_C3 (HIV-1).
The target in experiment [2] is HIV-1 envelope 3468_V1_C12 (HIV-1).
Experiment [3] concerns the target HIV-1 envelope 3637_V5_C3 (HIV-1).
In experiment [4] the target is HIV-1 envelope 42368 (HIV-1).
The target in experiment [5] is HIV-1 envelope Q461_E2 (HIV-1).
Experiment [6] addresses HIV-1 envelope X2088.C9 (HIV-1).
Experiment [7] has as its target HIV-1 envelope ZM106.9 (HIV-1).
Experiment [8] concerns the target HIV-1 envelope CAP45.2.00.G3 (HIV-1).
Experiment [9] addresses HIV-1 envelope CC1/85 (HIV-1).
Experiment [10] addresses HIV-1 envelope NL4-3 (HIV-1).
Experiment [11] concerns the target HIV-1 envelope T278.50 (HIV-1).
For experiment [12], the target named is HIV-1 envelope of laboratory strain NL4-3 (HIV-1).
Experiment [13] addresses HIV-2 envelope HIV-2-ATM88 (HIV-2).
Experiment [14] deals with HIV-2 envelope HIV-2-HCC-01 (HIV-2).
In experiment [15] the target is a different panel of HIV-1 envelopes from bNAb1-resistant strains.
Experiment [16] addresses HIV-1 envelope 246F3 (HIV-1).
Experiment [17] deals with HIV-1 envelope 25710 (HIV-1).
Experiment [18] has as its target HIV-1 envelope 398F1 (HIV-1).
For experiment [19], the target named is HIV-1 envelope BJOX2000 (HIV-1).
Experiment [20] deals with HIV-1 envelope CE0217 (HIV-1).
In experiment [21] the target is HIV-1 envelope CE1176 (HIV-1).
The target in experiment [22] is HIV-1 envelope CH119 (HIV-1).
Experiment [23] deals with HIV-1 envelope CNE55 (HIV-1).
Experiment [24] deals with HIV-1 envelope CNE8 (HIV-1).
The target in experiment [25] is HIV-1 envelope JR-CSF (HIV-1).
The target of experiment [26] is HIV-1 envelope JRFL (HIV-1).
The target of experiment [27] is HIV-1 envelope TRO11 (HIV-1).
Experiment [28] has as its target HIV-1 envelope X1632_S2_B10 (HIV-1).
For experiment [29], the target named is HIV-1 envelope X2278 (HIV-1).

B1: bNAb14 (antibody, V domains shown)
VH: QLQLQESGPGLVKPSETLSLTCTVSGGSMRGTDWGENDFHYGWIRQSSAKGLEWIGSIHWRGRTTHYKTSFRSRATLSIDTSNNRFSLTFSFVTAADTAVYYCARHKYHDIFRVVPVAGWFDPWGQGLLVTVSS
VL: EIVMTQSPPTLSVSPGETATLSCRASQNVKNNLAWYQLKPGQAPRLLIFDASSRAGGIPDRFSGSGYGTDFTLTVNSVQSEDFGDYFCQQYEEWPRTFGQGTKVDIKR
As for B1, the IC50, PSV assay is greater than 500 nM in [1]; greater than 500 nM in experiment [2]; greater than 500 nM in [3]; greater than 500 nM in experiment [4]; greater than 500 nM in experiment [5]; 2.79 nM in experiment [6]. For the same molecule, the IC50, PSV assay in [7] turned out to be 1.26 nM.

B2: bNAb15 (antibody, V domains shown)
VH: EVHLEESGPGLVRPSETLSLTCTASGGSIRGGEWGDSDYHWGWVRHSPEKGLEWIGSIHWRGTTHYNAPFRGRGRLSIDLSRNQFSLRLTSVTAEDTAVYYCVKHKYHDIVMVVPIAGWFDPWGQGLQVTVSS
VL: EIMMTQSPAILSVSPGDRATLSCRASQSVKNNLAWYQKRPGQAPRLLIFDTSSRASGIPARFSGGGSGTEFTLTVNSMQSEDFATYYCQQYEEWPRTFGQGTKVEIKR
For the molecule B2, the IC50, PSV assay is greater than 500 nM in [1]; greater than 500 nM in experiment [2]; 5 nM in experiment [3]; greater than 500 nM in experiment [4]; greater than 500 nM in [5]; 2.58 nM in experiment [6]. Also, the IC50, PSV assay in experiment [7] came out at 1.34 nM.

B3: bNAb1 (antibody, V domains shown)
VH: QPQLQESGPTLVEASETLSLTCAVSGDSTAACNSFWGWVRQPPGKGLEWVGSLSHCASYWNRGWTYHNPSLKSRLTLALDTPKNLVFLKLNSVTAADTATYYCARFGGEVLRYTDWPKPAWVDLWGRGTLVTVSS
VL: QSALTQPPSASGSPGQSITISCTGTSNNFVSWYQQHAGKAPKLVIYDVNKRPSGVPDRFSGSKSGNTASLTVSGLQTDDEAVYYCGSLVGNWDVIFGGGTKLTVLG
For B3, the IC50 (nM), PSV assay (ACTOne cells) in experiment [4] was greater than 500 nM; in experiment [8], greater than 500 nM; in experiment [9] it was 0.03 nM; in experiment [10] it was 131 nM; in experiment [11], 0.17 nM; in experiment [6], 402 nM. In addition, the IC50 (nM), PSV assay (ACTOne cells) in experiment [7] came out at 0.07 nM. In addition, the EC50 (replicating virus assay) in [12] is greater than 500 nM. Further, the IC50, PSV assay in experiment [13] and in experiment [14] was greater than 500 nM each time. Further, the geometric mean IC50, PSV assay (ACTOne), FIG. 4B in experiment [15] is greater than 10 nM.

B4: bNAb19 (antibody, V domains shown)
VH: EVQLVESGGGLVKAGGSLILSCGVSNFRISAHTMNWVRRVPGGGLEWVASISTSSTYRDYADAVKGRFTVSRDDLEDFVYLQMHKMRVEDTAIYYCARKGSDRLSDNDPFDAWGPGTVVTVSP
VL: DVVMTQSPSTLSASVGDTITITCRASQSIETWLAWYQQKPGKAPKLLIYKASTLKTGVPSRFSGSGSGTEFTLTISGLQFDDFATYHCQHYAGYSATFGQGTRVEIKR
As to B4, the IC50, PSV assay in experiment [1], in [2], in [3], in experiment [4], in experiment [5] and in experiment [6] was greater than 300 nM throughout. In [7], this molecule had an IC50, PSV assay greater than 300 nM.

B5: bNAb5 (antibody, V domains shown)
VH: QLQMQESGPGLVKPSETLSLSCTVSGDSIRGGEWGDKDYHWGWVRHSAGKGLEWIGSIHWRGTTHYKESLRRRVSMSIDTSRNWFSLRLASVTAADTAVYFCARHRHHDVFMLVPIAGWFDVWGPGVQVTVSS
VL: EIVMTQSPDTLSVSPGETVTLSCRASQNINKNLAWYQYKPGQSPRLVIFETYSKIAAFPARFVASGSGTEFTLTINNMQSEDVAVYYCQQYEEWPRTFGQGTKVDIKR
Regarding B5, the IC50 (nM), PSV assay in experiment [16] is 40.9 nM; in experiment [17] it was 8.1 nM; in experiment [18] it was 1.83 nM; in experiment [4] it was greater than 500 nM; in experiment [19], 127 nM; in experiment [8], greater than 500 nM. Further, the IC50 (nM), PSV assay in [9] is greater than 500 nM; in [20], 410 nM; in experiment [21] it was 57.1 nM; in experiment [22], 63.5 nM; in experiment [23], 3300 nM; in experiment [24] it was 51.4 nM. Also, the IC50 (nM), PSV assay is 0.64 nM in experiment [25]; 58.2 nM in experiment [26]; 2.62 nM in [10]; 96.1 nM in [11]; 0.39 nM in experiment [27]; greater than 500 nM in experiment [28]. The IC50 (nM), PSV assay in experiment [6] is 0.17 nM; in [29], 9.53 nM; in experiment [7], 2.04 nM.

B6: bNAb18 (antibody, V domains shown)
VH: QVQLVQSGAEVRKPGSSVTISCKPVGGTFTNFAIHWVRQAPGQGLEWVGGRVPVVGIYKYGKKFHDRLRLYEDDPMKTVFLELRSLTSDDTGVYYCTRWRGCGMCPYDTSSYYNDASDVWGPGTKVIVSA
VL: EIVLTQSPVTLSLSSGETGTLSCRASQNISSSWIAWYQQRRGQVPRLLISAASARAAGIPDRFTGRGSGTDFTLTITRLEPEDFGVYSCQYYGGSFFTFGPGTQVDVKR
Turning to B6, the IC50, PSV assay is greater than 500 nM in experiment [1]; greater than 500 nM in experiment [2]; greater than 500 nM in [3]; greater than 500 nM in [4]; greater than 500 nM in [5]; 0.2 nM in experiment [6]. The same molecule registered an IC50, PSV assay in experiment [7] of 0.11 nM.

B7: bNAb16 (antibody, V domains shown)
VH: EVQLVESGGGLVKPGGSLRLTCVASGFTFSDVWLNWVRQAPGKGLEWVGRIKSRTDGGTTDYAASVKGRFTISRDDSKNTLYLQMNSLKTEDTAVYSCTTDGFIMIRGVSEDYYYYYMDVWGKGTTVTVSS
VL: QSVLTQPPSVSAAPGQKVTISCSGSSSNIGNNYVLWYQQFPGTAPKLLIYGNNKRPSGIPDRFSGSKSGTSATLGITGLQTGDEADYFCATWDSGLSADWVFGGGTKLTVLG
In the case of B7, the IC50, PSV assay was greater than 500 nM in experiment [1]; greater than 500 nM in experiment [2]; greater than 500 nM in [3]; greater than 500 nM in experiment [4]; greater than 500 nM in experiment [5]; 289 nM in experiment [6]. In experiment [7], the IC50, PSV assay is greater than 500 nM.

B8: bNAb3 (antibody, V domains shown)
VH: QVQLRESGPGLVKPSETLSLSCTVSNDSRPSDHSWTWVRQSPGKALEWIGDIHYNGATTYNPSLRSRVRIELDQSIPRFSLKMTSMTAADTGMYYCARNAIRIYGVVALGEWFHYGMDVWGQGTAVTVSS
VL: SSELTQPPSVSVSPGQTARITCSGAPLTSRFTYWYRQKPGQAPVLIISRSSQRSSGWSGRFSASWSGTTVTLTIRGVQADDEADYYCQSSDTSDSYKMFGGGTKLTVLG
Regarding B8, the IC50 (nM), PSV assay (ACTOne cells) in experiment [4] is greater than 500 nM; in [8], greater than 500 nM; in experiment [9] it was 38.3 nM; in experiment [10], 0.15 nM; in experiment [11], 0.01 nM; in [6], 0.03 nM. Also, in [7], the IC50 (nM), PSV assay (ACTOne cells) stood at 0.03 nM.

B9: bNAb23 (antibody, V domains shown)
VH: QVQLLESGPGLVRPSETLTLTCSVFNSRVSGYYYSWIRQPPGRGLEWIASTHFSLRPSRNPSLLSRVTTSIDTERYQVFLNMRSVTAADTAVYFCARGDASGWRADYFPHWGQGTLVVVSS
VL: QSVLTQPPSASGSPGQSVTISCTGTSSDIGASDYVSWYQQYPGEAPKVIIYDVTKRPSGVPDRFSGSKSGTTASLTVSGLQAEDEADYYCSSDAGRHTLLFGGGTKVTVLG
In the case of B9, the IC50, PSV assay was 15.3 nM in experiment [1]; greater than 500 nM in [2]; greater than 500 nM in experiment [3]; greater than 500 nM in [4]; greater than 500 nM in experiment [5]; greater than 500 nM in [6]. In addition, the IC50, PSV assay in experiment [7] stood at 17.4 nM.
